Measurements published in paper PMC5063977 (The Journal of Biological Chemistry, 2016).
Values belong to the compound of their own block, whether it stands above or below them.

Key:
[1] = biological target: RAMP2-CLR complex expressed in HEK-293 cells (human) (UniProt Q16602)
[2] = biological target: RAMP1-CLR complex expressed in HEK-293 cells (human) (UniProt Q16602)
[3] = biological target: RAMP3-CLR complex expressed in HEK-293S cells (human) (UniProt Q16602)
[4] = biological target: RAMP3-CLR complex expressed in HEK-293 cells (human) (UniProt Q16602)
RAMP3-CLR complex expressed in HEK-293 cells (human), sequence (Q16602 23-461, chain 1 of 2): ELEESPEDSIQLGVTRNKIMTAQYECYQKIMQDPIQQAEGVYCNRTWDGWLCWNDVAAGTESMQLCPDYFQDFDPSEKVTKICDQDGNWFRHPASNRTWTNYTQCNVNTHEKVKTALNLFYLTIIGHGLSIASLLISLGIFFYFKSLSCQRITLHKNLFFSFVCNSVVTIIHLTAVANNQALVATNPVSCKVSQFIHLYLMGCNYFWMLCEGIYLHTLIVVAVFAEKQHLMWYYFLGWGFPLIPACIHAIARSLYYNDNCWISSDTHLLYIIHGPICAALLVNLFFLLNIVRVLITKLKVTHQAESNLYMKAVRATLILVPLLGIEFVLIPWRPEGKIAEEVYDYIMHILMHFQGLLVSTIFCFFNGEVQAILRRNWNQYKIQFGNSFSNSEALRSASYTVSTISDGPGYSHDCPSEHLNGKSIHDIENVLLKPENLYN
RAMP3-CLR complex expressed in HEK-293 cells (human), sequence (O60896 24-148, chain 2 of 2, further chain): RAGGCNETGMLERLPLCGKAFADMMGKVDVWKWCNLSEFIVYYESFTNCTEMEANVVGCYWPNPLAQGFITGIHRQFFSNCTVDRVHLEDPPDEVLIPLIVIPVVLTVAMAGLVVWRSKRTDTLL

[5] = biological target: RAMP2-CLR complex expressed in HEK-293S cells (human) (UniProt Q16602)
RAMP2-CLR complex expressed in HEK-293S cells (human), sequence (Q16602 23-461, chain 1 of 2): as the sequence (Q16602 23-461, chain 1 of 2) above
RAMP2-CLR complex expressed in HEK-293S cells (human), sequence (O60895 43-175, chain 2 of 2, further chain): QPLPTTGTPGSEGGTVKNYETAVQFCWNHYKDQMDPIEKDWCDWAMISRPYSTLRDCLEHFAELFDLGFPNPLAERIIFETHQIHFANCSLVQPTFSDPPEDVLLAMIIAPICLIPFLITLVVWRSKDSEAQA

[6] = biological target: RAMP1-CLR complex expressed in HEK-293S cells (human) (UniProt Q16602)
RAMP1-CLR complex expressed in HEK-293S cells (human), sequence (Q16602 23-461, chain 1 of 2): as the sequence (Q16602 23-461, chain 1 of 2) above
RAMP1-CLR complex expressed in HEK-293S cells (human), sequence (O60894 27-148, chain 2 of 2, further chain): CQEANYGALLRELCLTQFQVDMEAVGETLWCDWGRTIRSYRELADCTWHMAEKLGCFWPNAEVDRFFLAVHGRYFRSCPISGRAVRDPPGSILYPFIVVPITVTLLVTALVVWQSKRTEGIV

[7] = biological target: RAMP2-CLR complex expressed in HEK-293 cells (human) (UniProt Q16602); remark: listed apart in the source
[8] = biological target: RAMP1-CLR complex expressed in HEK-293 cells (human) (UniProt Q16602); remark: listed apart in the source
[9] = biological target: RAMP3-CLR complex expressed in HEK-293 cells (human) (UniProt Q16602); remark: listed apart in the source
[10] = biological target: RAMP1-CLR heterodimer expressed in S. cerevisiae (human) (UniProt Q16602)
RAMP1-CLR heterodimer expressed in S. cerevisiae (human), sequence (Q16602 23-461, chain 1 of 2): as the sequence (Q16602 23-461, chain 1 of 2) above
RAMP1-CLR heterodimer expressed in S. cerevisiae (human), sequence (O60894 27-148, chain 2 of 2, further chain): as the sequence (O60894 27-148, chain 2 of 2, further chain) above

[11] = biological target: RAMP3-CLR heterodimer expressed in S. cerevisiae (human) (UniProt Q16602)
RAMP3-CLR heterodimer expressed in S. cerevisiae (human), sequence (Q16602 23-461, chain 1 of 2): as the sequence (Q16602 23-461, chain 1 of 2) above
RAMP3-CLR heterodimer expressed in S. cerevisiae (human), sequence (O60896 24-148, chain 2 of 2, further chain): as the sequence (O60896 24-148, chain 2 of 2, further chain) above

[12] = biological target: RAMP2-CLR heterodimer expressed in S. cerevisiae (human) (UniProt Q16602)
RAMP2-CLR heterodimer expressed in S. cerevisiae (human), sequence (Q16602 23-461, chain 1 of 2): as the sequence (Q16602 23-461, chain 1 of 2) above
RAMP2-CLR heterodimer expressed in S. cerevisiae (human), sequence (O60895 43-175, chain 2 of 2, further chain): as the sequence (O60895 43-175, chain 2 of 2, further chain) above

[13] = biological target: RAMP3-CLR complex expressed in HEK-293S cells (human) (UniProt Q16602); remark: listed apart in the source
[14] = biological target: RAMP2-CLR complex expressed in HEK-293S cells (human) (UniProt Q16602); remark: listed apart in the source
[15] = biological target: RAMP1-CLR complex expressed in HEK-293S cells (human) (UniProt Q16602); remark: listed apart in the source
[16] = biological target: RAMP2-CLR complex expressed in HEK-293 cells (human) (UniProt Q16602); remark: listed apart in the source
[17] = biological target: RAMP1-CLR complex expressed in HEK-293 cells (human) (UniProt Q16602); remark: listed apart in the source
[18] = biological target: RAMP3-CLR complex expressed in HEK-293 cells (human) (UniProt Q16602); remark: listed apart in the source
[19] = test system: untransfected HEK-293 cells; test: forskolin-stimulated cAMP accumulation, untransfected HEK-293 cells; type: cell-based, human

RAMP3-CLR complex expressed in HEK-293S cells (human), sequence (Q16602 23-461, chain 1 of 2): as the sequence (Q16602 23-461, chain 1 of 2) above
RAMP3-CLR complex expressed in HEK-293S cells (human), sequence (O60896 24-148, chain 2 of 2, further chain): as the sequence (O60896 24-148, chain 2 of 2, further chain) above
RAMP2-CLR complex expressed in HEK-293 cells (human), sequence (Q16602 23-461, chain 1 of 2): as the sequence (Q16602 23-461, chain 1 of 2) above
RAMP2-CLR complex expressed in HEK-293 cells (human), sequence (O60895 43-175, chain 2 of 2, further chain): as the sequence (O60895 43-175, chain 2 of 2, further chain) above
RAMP1-CLR complex expressed in HEK-293 cells (human), sequence (Q16602 23-461, chain 1 of 2): as the sequence (Q16602 23-461, chain 1 of 2) above
RAMP1-CLR complex expressed in HEK-293 cells (human), sequence (O60894 27-148, chain 2 of 2, further chain): as the sequence (O60894 27-148, chain 2 of 2, further chain) above

- pEC50, (Ca^2+)i mobilization in HEK-293 cells [1]: 7.41 -log10
- pKa (operational model of agonism), (Ca^2+)i mobilization in HEK-293 cells [1]: 7.15 -log10
- pEC50, (Ca^2+)i mobilization in HEK-293 cells [2]: 6.76 -log10
- pKa (operational model of agonism), (Ca^2+)i mobilization in HEK-293 cells [2]: 6.64 -log10
- pEC50, (Ca^2+)i mobilization in HEK-293S cells [3]: 7.44 -log10
- pKa (operational model of agonism), (Ca^2+)i mobilization in HEK-293S cells [3]: 7.35 -log10
- pEC50, (Ca^2+)i mobilization in HEK-293 cells [4]: 8.05 -log10
- pKa (operational model of agonism), (Ca^2+)i mobilization in HEK-293 cells [4]: 7.95 -log10
- pEC50, (Ca^2+)i mobilization in HEK-293S cells [5]: 7.42 -log10
- pKa (operational model of agonism), (Ca^2+)i mobilization in HEK-293S cells [5]: 7.33 -log10
- pEC50, (Ca^2+)i mobilization in HEK-293S cells [6]: 6.94 -log10
- pKa (operational model of agonism), (Ca^2+)i mobilization in HEK-293S cells [6]: 6.76 -log10
- pKa (operational model of agonism), cAMP accumulation in HEK-293 cells, with PTX pretreatment [7]: 8.84 -log10
- pEC50, cAMP accumulation in HEK-293 cells, with PTX pretreatment [8]: 9.15 -log10
- pEC50, cAMP accumulation in HEK-293 cells, without PTX [8]: 7.93 -log10
- pKa (operational model of agonism), cAMP accumulation in HEK-293 cells, with PTX pretreatment [8]: 8.56 -log10
- pKa (operational model of agonism), cAMP accumulation in HEK-293 cells, without PTX [8]: 7.7 -log10
- pEC50, cAMP accumulation in HEK-293 cells, with PTX pretreatment [9]: 8.74 -log10
- pEC50, cAMP accumulation in HEK-293 cells, without PTX [9]: 9.1 -log10
- pKa (operational model of agonism), cAMP accumulation in HEK-293 cells, with PTX pretreatment [9]: 8.43 -log10
- pKa (operational model of agonism), cAMP accumulation in HEK-293 cells, without PTX [9]: 9.08 -log10
- pEC50, yeast growth reporter, GPA1/Gαi chimera strain [10]: 8.57 -log10
- pEC50, yeast growth reporter, GPA1/Gαq chimera strain [10]: 7.99 -log10
- pEC50, yeast growth reporter, GPA1/Gαs chimera strain [10]: 7.22 -log10
- pKa (operational model of agonism), yeast growth reporter, GPA1/Gαi chimera strain [10]: 8.24 -log10
- pKa (operational model of agonism), yeast growth reporter, GPA1/Gαq chimera strain [10]: 7.91 -log10
- pKa (operational model of agonism), yeast growth reporter, GPA1/Gαs chimera strain [10]: 7.31 -log10
- pEC50, yeast growth reporter, GPA1/Gαi chimera strain [11]: 8.49 -log10
- pEC50, yeast growth reporter, GPA1/Gαq chimera strain [11]: 6.76 -log10
- pEC50, yeast growth reporter, GPA1/Gαs chimera strain [11]: 8.85 -log10
- pKa (operational model of agonism), yeast growth reporter, GPA1/Gαi chimera strain [11]: 8.3 -log10
- pKa (operational model of agonism), yeast growth reporter, GPA1/Gαq chimera strain [11]: 6.6 -log10
- pKa (operational model of agonism), yeast growth reporter, GPA1/Gαs chimera strain [11]: 8.61 -log10
- pEC50, yeast growth reporter, GPA1/Gαi chimera strain [12]: 8.42 -log10
- pEC50, yeast growth reporter, GPA1/Gαq chimera strain [12]: 9.22 -log10
- pEC50, yeast growth reporter, GPA1/Gαs chimera strain [12]: 8.05 -log10
- pKa (operational model of agonism), yeast growth reporter, GPA1/Gαi chimera strain [12]: 8.3 -log10
- pKa (operational model of agonism), yeast growth reporter, GPA1/Gαq chimera strain [12]: 9.16 -log10
- pKa (operational model of agonism), yeast growth reporter, GPA1/Gαs chimera strain [12]: 8.1 -log10
- pEC50, cAMP accumulation in HEK-293S cells, with PTX pretreatment [13]: 7.79 -log10
- pEC50, cAMP accumulation in HEK-293S cells, without PTX [13]: 8.01 -log10
- pEC50, cAMP accumulation in HEK-293S cells, without PTX [14]: 8.57 -log10
- pEC50, cAMP accumulation in HEK-293S cells, with PTX pretreatment [15]: 8.78 -log10
- pEC50, cAMP accumulation in HEK-293S cells, without PTX [15]: 8.74 -log10
- pEC50, cAMP accumulation in HEK-293 cells [16]: 7.48 -log10
- pKa (operational model of agonism), cAMP accumulation in HEK-293 cells [16]: 7.16 -log10
- pEC50, cAMP accumulation in HEK-293 cells [17]: 7.93 -log10
- pKa (operational model of agonism), cAMP accumulation in HEK-293 cells [17]: 7.76 -log10
- pEC50, cAMP accumulation in HEK-293 cells [18]: 9.14 -log10
- pKa (operational model of agonism), cAMP accumulation in HEK-293 cells [18]: 9 -log10
Compound: hAM2 (1–47) (peptide)

- pEC50, (Ca^2+)i mobilization in HEK-293 cells [1]: 7.86 -log10
- pKa (operational model of agonism), (Ca^2+)i mobilization in HEK-293 cells [1]: 7.45 -log10
- pEC50, (Ca^2+)i mobilization in HEK-293 cells [2]: 7.9 -log10
- pKa (operational model of agonism), (Ca^2+)i mobilization in HEK-293 cells [2]: 7.69 -log10
- pEC50, (Ca^2+)i mobilization in HEK-293S cells [3]: 8.02 -log10
- pKa (operational model of agonism), (Ca^2+)i mobilization in HEK-293S cells [3]: 8.56 -log10
- pEC50, (Ca^2+)i mobilization in HEK-293 cells [4]: 8.12 -log10
- pKa (operational model of agonism), (Ca^2+)i mobilization in HEK-293 cells [4]: 7.76 -log10
- pEC50, (Ca^2+)i mobilization in HEK-293S cells [5]: 7.68 -log10
- pKa (operational model of agonism), (Ca^2+)i mobilization in HEK-293S cells [5]: 7.39 -log10
- pEC50, (Ca^2+)i mobilization in HEK-293S cells [6]: 7.63 -log10
- pKa (operational model of agonism), (Ca^2+)i mobilization in HEK-293S cells [6]: 7.42 -log10
- pEC50, cAMP accumulation in HEK-293 cells, with PTX pretreatment [7]: 10.2 -log10
- pEC50, cAMP accumulation in HEK-293 cells, without PTX [7]: 10.3 -log10
- pKa (operational model of agonism), cAMP accumulation in HEK-293 cells, with PTX pretreatment [7]: 9.83 -log10
- pKa (operational model of agonism), cAMP accumulation in HEK-293 cells, without PTX [7]: 10 -log10
- pEC50, cAMP accumulation in HEK-293 cells, with PTX pretreatment [8]: 8.14 -log10
- pEC50, cAMP accumulation in HEK-293 cells, without PTX [8]: 7.93 -log10
- pKa (operational model of agonism), cAMP accumulation in HEK-293 cells, with PTX pretreatment [8]: 7.66 -log10
- pKa (operational model of agonism), cAMP accumulation in HEK-293 cells, without PTX [8]: 7.67 -log10
- pEC50, cAMP accumulation in HEK-293 cells, with PTX pretreatment [9]: 9.1 -log10
- pEC50, cAMP accumulation in HEK-293 cells, without PTX [9]: 8.98 -log10
- pKa (operational model of agonism), cAMP accumulation in HEK-293 cells, with PTX pretreatment [9]: 8.94 -log10
- pKa (operational model of agonism), cAMP accumulation in HEK-293 cells, without PTX [9]: 8.83 -log10
- pEC50, yeast growth reporter, GPA1/Gαi chimera strain [10]: 8.38 -log10
- pEC50, yeast growth reporter, GPA1/Gαq chimera strain [10]: 7.26 -log10
- pEC50, yeast growth reporter, GPA1/Gαs chimera strain [10]: 8.8 -log10
- pKa (operational model of agonism), yeast growth reporter, GPA1/Gαi chimera strain [10]: 8.2 -log10
- pKa (operational model of agonism), yeast growth reporter, GPA1/Gαq chimera strain [10]: 7.19 -log10
- pKa (operational model of agonism), yeast growth reporter, GPA1/Gαs chimera strain [10]: 8.81 -log10
- pEC50, yeast growth reporter, GPA1/Gαi chimera strain [11]: 7.89 -log10
- pEC50, yeast growth reporter, GPA1/Gαq chimera strain [11]: 7.83 -log10
- pEC50, yeast growth reporter, GPA1/Gαs chimera strain [11]: 8.15 -log10
- pKa (operational model of agonism), yeast growth reporter, GPA1/Gαi chimera strain [11]: 8 -log10
- pKa (operational model of agonism), yeast growth reporter, GPA1/Gαq chimera strain [11]: 7.71 -log10
- pKa (operational model of agonism), yeast growth reporter, GPA1/Gαs chimera strain [11]: 8.1 -log10
- pEC50, yeast growth reporter, GPA1/Gαi chimera strain [12]: 7.91 -log10
- pEC50, yeast growth reporter, GPA1/Gαq chimera strain [12]: 7.93 -log10
- pEC50, yeast growth reporter, GPA1/Gαs chimera strain [12]: 8.82 -log10
- pKa (operational model of agonism), yeast growth reporter, GPA1/Gαi chimera strain [12]: 7.75 -log10
- pKa (operational model of agonism), yeast growth reporter, GPA1/Gαq chimera strain [12]: 7.78 -log10
- pKa (operational model of agonism), yeast growth reporter, GPA1/Gαs chimera strain [12]: 8.77 -log10
- pEC50, cAMP accumulation in HEK-293S cells, with PTX pretreatment [13]: 9.49 -log10
- pEC50, cAMP accumulation in HEK-293S cells, without PTX [13]: 9.63 -log10
- pEC50, cAMP accumulation in HEK-293S cells, with PTX pretreatment [14]: 9.38 -log10
- pEC50, cAMP accumulation in HEK-293S cells, without PTX [14]: 9.39 -log10
- pEC50, cAMP accumulation in HEK-293S cells, with PTX pretreatment [15]: 8.03 -log10
- pEC50, cAMP accumulation in HEK-293S cells, without PTX [15]: 8.13 -log10
- pEC50, cAMP accumulation in HEK-293 cells [16]: 10.3 -log10
- pKa (operational model of agonism), cAMP accumulation in HEK-293 cells [16]: 9.95 -log10
- pEC50, cAMP accumulation in HEK-293 cells [17]: 7.92 -log10
- pKa (operational model of agonism), cAMP accumulation in HEK-293 cells [17]: 7.64 -log10
- pEC50, cAMP accumulation in HEK-293 cells [18]: 8.86 -log10
- pKa (operational model of agonism), cAMP accumulation in HEK-293 cells [18]: 8.5 -log10
Compound: hAM (peptide)

Compound: C=C[C@@]1(C)CC(=O)[C@]2(O)[C@@]3(C)[C@@H](O)CCC(C)(C)[C@@H]3[C@H](O)[C@H](OC(C)=O)[C@@]2(C)O1 [forskolin, Forskolin]
- overall level of cAMP accumulation, forskolin stimulation ([19]; untransfected HEK-293, PTX treated): 16.45 ± 2.4 pmol cell^−1
- overall level of cAMP accumulation, forskolin stimulation ([19]; untransfected HEK-293, untreated (no PTX)): 16.57 ± 2.5 pmol cell^−1
